Experimental data from patent US20230049152A1.

Biological target: human CCR8 (human) (UniProt P51685)
Assay: cell-based or functional assay

murine anti-human CCR8 mAb L263G8 (Biolegend) (antibody)
ADCC reporter EC50, mFcgRIV Jurkat cells with CHO/hCCR8 (FIG. 11D): 0.28 nM | CCL1 blocking potency IC50, Ca2+ influx: 23.6 nM | induction fold at about 1 nM antibody, mFcgRIV Jurkat NFAT-luciferase reporter: > 10 fold | induction fold plateau at about 40 nM antibody, mFcgRIV Jurkat NFAT-luciferase reporter: 11 fold
